Paper PMC12022973, “Proteomimetic Strategy for the Modulation of Intrinsically Disordered Protein MYC” (Journal of the American Chemical Society, 2025)
Positions of bridges follow the written chain, without caps; N, C: chain ends. Chains are numbered I, II in the order given. No end group written: not given here.

Target: T1, recombinant human MYC^353–437 protein (human)
T1 construct: MYC, human, residues 353-437; Aggregates above 5 μM; also called His6-MYC^353–437; source: recombinant
Experiment: fluorescence polarisation; fluorescein-labeled CHDs with His6-MYC^353–437, His6-MAX or the MYC/MAX complex; MYC up to 5 μM (aggregation above)
Conditions: both partners purified

Kd	Binder
350 ± 17 nM	fluorescein-labeled CHD^Max-1 (cross-linked helix dimer derived from MAX) (designed binder, bridge I:11-II:16; not fully specified (bridges); also: fluorescein label, chain and position not given here) chain 1: LREKIATLQWCIEELRK chain 2: LRRKNETHQWEIEELC
> 5000 nM	fluorescein-labeled CHD^Max-3 (negative control) (designed binder, bridge I:11-II:16; not fully specified (bridges); also: fluorescein label, chain and position not given here) chain 1: LREKAATLQWCIEELRK chain 2: LRRKAETAQWEIEELC
880 ± 53 nM	fluorescein-labeled CHD^Max-2 (designed binder, bridge I:11-II:16; not fully specified (bridges); also: fluorescein label, chain and position not given here) chain 1: LREKIATLQWCIEELRK chain 2: LEARIETHQWRIRELCE
